The target in this test is Pyruvate kinase M2 isoform (human (endogenous in A549)) (UniProt P14618). The experiment in a line: cross-linking; A549 cells washed with PBS pH 8.0 and treated with BS3 for 1 h at room temperature before lysis in loading buffer; dimers and tetramers by immunoblot; cells with eEF2K depletion, overexpression or A484954. (A western blot detects proteins with antibodies after separation by electrophoresis.)

As usually defined, the stoichiometry N is a count of units in the complex or per binding partner.

Pyruvate kinase M2 isoform, P14618 1-531 (enzyme; other documents disagree on this pair), sequence (P14618 whole entry, canonical isoform): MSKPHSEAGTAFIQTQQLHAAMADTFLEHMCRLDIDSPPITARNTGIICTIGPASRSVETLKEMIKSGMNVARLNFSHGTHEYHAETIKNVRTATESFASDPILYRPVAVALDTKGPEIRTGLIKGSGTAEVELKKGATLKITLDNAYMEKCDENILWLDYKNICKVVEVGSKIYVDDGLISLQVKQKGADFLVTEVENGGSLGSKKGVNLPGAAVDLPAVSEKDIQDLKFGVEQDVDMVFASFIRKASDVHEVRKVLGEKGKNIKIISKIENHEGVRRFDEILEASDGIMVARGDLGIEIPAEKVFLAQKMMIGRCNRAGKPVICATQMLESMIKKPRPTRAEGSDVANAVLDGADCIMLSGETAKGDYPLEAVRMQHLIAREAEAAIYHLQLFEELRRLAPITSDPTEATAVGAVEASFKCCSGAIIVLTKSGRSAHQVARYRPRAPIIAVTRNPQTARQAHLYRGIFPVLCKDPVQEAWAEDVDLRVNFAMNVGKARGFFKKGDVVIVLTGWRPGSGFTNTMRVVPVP

In turn, “Pyruvate kinase M2 isoform, P14618 1-531 (enzyme; other documents disagree on this pair)” registered a stoichiometry N of 2.

Source of the values: PMC7020344.
